# According to US20240262915A1 (NANJING SANHOME PHARMACEUTICAL, published 2024):
# T1: TIGIT-mFc (extracellular region of human TIGIT with mIgG1-Fc tag) (human)
# T1 construct: A bought TIGIT-mFc (Acro Biosystems TIT-H5253) is used for immunization; also called recombinant humanized TIGIT-mFc
# T1 chain: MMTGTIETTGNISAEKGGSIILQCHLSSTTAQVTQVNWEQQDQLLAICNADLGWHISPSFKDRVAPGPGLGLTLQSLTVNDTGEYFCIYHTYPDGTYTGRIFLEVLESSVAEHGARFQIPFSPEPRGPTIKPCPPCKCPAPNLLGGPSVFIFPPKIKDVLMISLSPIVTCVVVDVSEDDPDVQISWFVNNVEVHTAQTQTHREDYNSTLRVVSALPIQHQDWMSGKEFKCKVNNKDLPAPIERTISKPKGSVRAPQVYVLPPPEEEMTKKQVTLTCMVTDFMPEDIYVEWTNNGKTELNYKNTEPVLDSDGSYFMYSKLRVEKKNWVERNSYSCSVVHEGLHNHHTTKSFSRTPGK
# T2: TIGIT-his (extracellular region of human TIGIT protein fused with his) (human, UniProt Q495A1 22-141)
# T2 construct: also called antigen TIGIT-his
# T2 sequence: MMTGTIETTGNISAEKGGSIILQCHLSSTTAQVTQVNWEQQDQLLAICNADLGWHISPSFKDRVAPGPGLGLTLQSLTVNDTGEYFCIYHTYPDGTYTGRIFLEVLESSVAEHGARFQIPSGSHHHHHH
# T3: full-length TIGIT on hTIGIT-CHO-K1 cells (human, UniProt Q495A1 22-244)
# T3 construct: CHO-K1 cells stably transfected with pTargeT-TIGIT; also called TIGIT on cell surface
# T3 sequence: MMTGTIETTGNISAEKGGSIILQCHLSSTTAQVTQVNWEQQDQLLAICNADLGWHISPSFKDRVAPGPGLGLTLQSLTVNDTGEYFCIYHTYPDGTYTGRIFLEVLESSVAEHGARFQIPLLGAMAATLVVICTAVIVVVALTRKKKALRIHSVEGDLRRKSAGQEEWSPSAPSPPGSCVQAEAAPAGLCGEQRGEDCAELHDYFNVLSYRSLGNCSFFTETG
# What was measured:
# [1] = molecular target: T1, TIGIT-mFc (extracellular region of …); experiment: FACS, blocking of TIGIT-mFc binding to cells (TIGIT/CD155; cells printed as hTIGIT-CHO-K1)
# [2] = molecular target: T4, human PD-L1 on hPD-L1-CHO-K1 cells (human, UniProt Q9NZQ7 19-290); experiment: FACS, blocking of PD-1-mFc binding to hPD-L1-CHO-K1 cells (competitor PD-1-mFc)
# T4 construct: whole, on cells; The making of this cell line is not described
# [3] = molecular target: T4, human PD-L1 on hPD-L1-CHO-K1 cells; experiment: FACS on hPD-L1-CHO-K1 cells
# [4] = molecular target: T2, TIGIT-his (extracellular region of …); experiment: BLI, Fortebio Octet RED96, antibody on AHC sensor, TIGIT-his in solution
# [5] = molecular target: T3, full-length TIGIT on hTIGIT-CHO-K1 cells; experiment: FACS on hTIGIT-CHO-K1 cells
# [6] = molecular target: T5, PD-L1-his (human, UniProt Q9NZQ7 19-238, limits assumed); experiment: BLI, Fortebio Octet RED96, antibody on AHC sensor, PD-L1-his in solution
# T5 construct: also called human PD-L1 protein
# T5 sequence (Q9NZQ7 19-238 limits assumed): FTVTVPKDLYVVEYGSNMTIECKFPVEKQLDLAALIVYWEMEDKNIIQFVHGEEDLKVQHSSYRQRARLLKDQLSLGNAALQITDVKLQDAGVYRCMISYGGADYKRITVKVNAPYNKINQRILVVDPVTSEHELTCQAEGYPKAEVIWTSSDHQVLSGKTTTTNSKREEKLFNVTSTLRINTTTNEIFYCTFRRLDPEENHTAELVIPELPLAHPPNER
# T4 sequence (Q9NZQ7 19-290): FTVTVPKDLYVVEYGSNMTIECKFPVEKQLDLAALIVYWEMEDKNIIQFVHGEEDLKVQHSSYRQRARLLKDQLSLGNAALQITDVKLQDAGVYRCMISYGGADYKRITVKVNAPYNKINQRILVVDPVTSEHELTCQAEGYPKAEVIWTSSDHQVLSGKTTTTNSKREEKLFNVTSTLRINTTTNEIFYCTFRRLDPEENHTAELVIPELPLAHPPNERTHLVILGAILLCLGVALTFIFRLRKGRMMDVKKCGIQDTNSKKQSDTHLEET
binder,measurement,setting,value
"HuPL721-T2353-ScFab (bispecific antibody, human IgG4 S228P, kappa, each is light chain - GGGGS linker - heavy chain, IgG4) chain 1: DIQMTQSPSSLSASVGDRVTITCRTSQDIGNSLRWFQQKPGKAPKLLIHGATNLANGVPSRFSGSGSGTDFTLTISSLQPEDFATYYCLQHNEYPLTFGCGTKLEIKRTVAAPSVFIFPPSDEQLKSGTASVVCLLNNFYPREAKVQWKVDNALQSGNSQESVTEQDSKDSTYSLSSTLTLSKADYEKHKVYACEVTHQGLSSPVTKSFNRGECGGGGSGGGGSGGGGSGGGGSGGGGSGGGGSGGGGSGGGGSEVQLVESGGGLVQPGGSLRLSCAASGFTFSDHWMSWVRQAPGKCMEWIGNIQYDGSYTNYAPSLKNRFTISRDNAKNSLYLQMNSLRAEDTATYYCTRGHFRITMASMGASASVYWGQGTMVTVSSASTKGPSVFPLAPCSRSTSESTAALGCLVKDYFPEPVTVSWNSGALTSGVHTFPAVLQSSGLYSLSSVVTVPSSSLGTKTYTCNVDHKPSNTKVDKRVESKYGPPCPPCPAPEFLGGPSVFLFPPKPKDTLMISRTPEVTCVVVDVSQEDPEVQFNWYVDGVEVHNAKTKPREEQFNSTYRVVSVLTVLHQDWLNGKEYKCKVSNKGLPSSIEKTISKAKGQPREPQVYTLPPCQEEMTKNQVSLWCLVKGFYPSDIAVEWESNGQPENNYKTTPPVLDSDGSFFLYSRLTVDKSRWQEGNVFSCSVMHEALHNHYTQKSLSLSLGK chain 2: not shown",IC50,[1],4.08 nM
same,IC50,[2],3.19 nM
same,EC50,[3],1.77 nM
same,Kd,[4],3.06 nM
same,koff,[4],0.00333 s⁻¹
same,kon,[4],1.09e+06 M⁻¹ s⁻¹
same,EC50,[5],1.3 nM
same,Kd,[6],1.32 nM
same,koff,[6],0.000273 s⁻¹
same,kon,[6],207000 M⁻¹ s⁻¹
